Reference: patent US20250313607A1

Legend:
Test in all cases: cell-based or functional assay
[1] = molecular target: IL-10R NatE MESA receptor pair: CTEVp receptor with an IL-10Ra signal sequence, ECD, and TMD paired with a NTEVp receptor with an IL-10Rb ECD and TMD and a hCD8a signal sequence (human; tobacco etch virus)
[2] = molecular target: IL-10R NatE MESA receptor pair in which both ECDs are IL-10Rα (human; tobacco etch virus)
[3] = molecular target: IL-10R NatE MESA receptor pair in which both ECDs are IL-10Rβ (human; tobacco etch virus)
[4] = molecular target: VEGFR NatE MESA receptor pair: CTEVp (190K) receptor with a VEGFR1 signal sequence, ECD, and TMD paired with a NTEVp (WT) receptor with a VEGFR2 signal sequence, ECD, and TMD (human; tobacco etch virus)

Chain of human vascular endothelial growth factor VEGFA165 (P15692 other isoform, or with tags, fused parts or gaps limits assumed): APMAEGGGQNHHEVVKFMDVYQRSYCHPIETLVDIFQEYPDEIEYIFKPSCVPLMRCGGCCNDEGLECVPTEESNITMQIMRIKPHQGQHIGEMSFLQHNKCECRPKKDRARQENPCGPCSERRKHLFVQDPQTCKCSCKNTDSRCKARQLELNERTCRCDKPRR

Row | Substance | IL-10 concentration at which reporter expression plateaus, genomically integrated receptors in Jurkat T cells [1] [ng/mL] | IL-10 concentration at which reporter expression saturates, genomically integrated receptors in HEK293FT cells [1] [ng/mL] | lowest IL-10 concentration distinguished by reporter expression, genomically integrated receptors in HEK293FT cells [1] [ng/mL] | lowest IL-10 dose detected, Jurkats sorted for the top octile of mNeonGreen expression [1] [ng/mL] | lowest IL-10 dose with a significant increase in reporter expression, antibiotic-selected Jurkat T cells [1] [ng/mL] | fold induction of reporter expression, transfected receptors with co-expressed human IL-10 (fold induction) [2] | fold induction of reporter expression, transfected receptors with co-expressed human IL-10 (fold induction) [3] | dose of recombinant VEGF giving the highest reporter signal, genomically integrated receptors in HEK293FT cells [4] [ng/mL]
1 | human interleukin 10 (IL-10) (from UniProt P22301 19-178) (ligand) | 250 | 250 | 16 | 2 | 16 | 1 | 1 | 
2 | human vascular endothelial growth factor VEGFA165 (from UniProt P15692 27-191) (ligand) |  |  |  |  |  |  |  | 100
